The text below walks through data of patent publication EP2015073A1.

Test [1] has as its target human Bcl10 (hBcl10), endogenous in the cells used (human) (UniProt O95999). The test can be described thus: cell-based or functional assay.
Test [2] concerns the target FLAG-tagged, point mutated Bcl10 (R228/G) (human) (UniProt O95999). The test can be described thus: cell-based or functional assay.

Turning to “Malt1 with deletion of the caspase-like domain (Δcasp) or mutation of the active site residues Cys 464 or His 415”, in test [1], the relative NF-κB activity (dual luciferase assay), percent of the maximum level achieved with wt Malt1 was 50 to 65%.

With “human Malt1 (hMalt1), endogenous in the cells used (from UniProt Q9UDY8 1-824) (enzyme)”, the relative NF-κB activity (dual luciferase assay), percent of the maximum levels (wt Bcl10) in test [2] came out at 75%.
